Source: article PMC13600239

How the values were obtained:
[1] = target: Rmo2^HMA (integrated HMA domain of the barley tandem kinase protein Rmo2) (barley); experiment: ITC; […]; 25°C; 20 mM HEPES pH 7.5, 150 mM NaCl; triplicate, […]
[2] = target: Rwt7^HMA-6His (wheat); experiment: as above

Row | Substance | Kd [1] [nM] | Kd [2] [nM]
1 | PBY2 (Magnaporthe oryzae effector) (natural protein) | 53.5 | –
2 | PWT7 (Magnaporthe oryzae effector) (natural protein) | – | 2.92
